Changes are numbered by the printed parent chain.
How the values were obtained:
Assay in all cases: EMSA
Conditions in all cases: tags: MBP fusion
ZFP SBS#919 = biological target: T1, ZFP SBS#919 (synthetic)
T1 chain: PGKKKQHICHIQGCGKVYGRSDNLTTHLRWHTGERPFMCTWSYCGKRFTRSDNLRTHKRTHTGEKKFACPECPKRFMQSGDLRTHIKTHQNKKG
Outline: (§1)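 Purified ZFP was titrated against labeled double-stranded target (1 nM or lower, at least 10-fold below expected Kd) carrying the natural binding site with flanks. Binding buffer was 10 mM Tris pH 7.5, 100 mM KCl, 1 mM MgCl2, 0.1 mM ZnCl2, 5 mM DTT, 10% glycerol, 0.02% BSA, with equilibration for at least 45 min. Bound and free target were separated on a 10% polyacrylamide gel.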

ZFP SBS#1041 = biological target: T2, ZFP SBS#1041 (synthetic)
T2 chain: T1 chain with G80H, R83T, T84K
Outline: as §1

ZFP SBS#944 = ZFP SBS#944 (synthetic, UniProt P08047)
Chain of ZFP SBS#944 (P08047 other isoform, or with tags, fused parts or gaps): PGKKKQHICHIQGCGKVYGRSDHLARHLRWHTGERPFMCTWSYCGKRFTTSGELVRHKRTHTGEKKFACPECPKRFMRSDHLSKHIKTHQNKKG
Outline: as §1

ZFP SBS#941 = biological target: T3, ZFP SBS#941 (synthetic)
T3 chain: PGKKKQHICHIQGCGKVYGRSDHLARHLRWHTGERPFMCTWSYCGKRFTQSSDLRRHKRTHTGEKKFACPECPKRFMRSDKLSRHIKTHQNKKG
Outline: as §1

ZFP SBS#942 = ZFP SBS#942 (synthetic, UniProt P08047)
Chain of ZFP SBS#942 (P08047 other isoform, or with tags, fused parts or gaps): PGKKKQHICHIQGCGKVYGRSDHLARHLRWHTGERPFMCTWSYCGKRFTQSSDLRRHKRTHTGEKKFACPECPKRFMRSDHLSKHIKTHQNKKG
Outline: as §1

ZFP SBS#943 = biological target: T4, ZFP SBS#943 (synthetic)
T4 chain: T3 chain with Q50T, S52G, D53E, R55V
Outline: as §1

ZFP SBS#1040 = ZFP SBS#1040 (synthetic, UniProt P08047)
Chain of ZFP SBS#1040 (P08047 other isoform, or with tags, fused parts or gaps): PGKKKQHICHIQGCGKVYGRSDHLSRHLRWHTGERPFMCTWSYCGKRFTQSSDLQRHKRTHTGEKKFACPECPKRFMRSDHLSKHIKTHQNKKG
Outline: as §1

ZFP SBS#1039 = biological target: T5, ZFP SBS#1039 (synthetic)
T5 chain: T3 chain with A25S, Q50T, S52G, D53E, R55V, K81H, S83T
Outline: as §1

ZFP SBS#993 = biological target: T6, ZFP SBS#993 (synthetic, UniProt P08047)
T6 chain: T3 chain with Q50T, S52G, D53E, R55V, K81H
Outline: as §1

ZFP SBS#453 = ZFP SBS#453 (synthetic)
Chain of ZFP SBS#453 (synthetic) (chain, as listed by the source): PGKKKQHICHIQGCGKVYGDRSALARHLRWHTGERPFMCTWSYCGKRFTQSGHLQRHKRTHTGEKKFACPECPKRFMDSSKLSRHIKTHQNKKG
Outline: as §1

ZFP SBS#441 = ZFP SBS#441 (synthetic)
Chain of ZFP SBS#441 (synthetic) (chain, as listed by the source): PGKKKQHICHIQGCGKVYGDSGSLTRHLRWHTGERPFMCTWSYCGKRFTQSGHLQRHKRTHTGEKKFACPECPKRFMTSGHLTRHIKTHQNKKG
Outline: as §1

ZFP SBS#1044 = biological target: T7, ZFP SBS#1044 (synthetic)
T7 chain: T3 chain with H23N, S51R, S52A, D53H, R55E, K81N, S83R, R84E
Outline: as §1

ZFP SBS#1043 = ZFP SBS#1043 (synthetic)
Chain of ZFP SBS#1043 (synthetic) (chain, as listed by the source): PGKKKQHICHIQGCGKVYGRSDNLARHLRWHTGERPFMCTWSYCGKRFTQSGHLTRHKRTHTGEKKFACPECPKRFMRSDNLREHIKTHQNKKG
Outline: as §1

ZFP SBS#1046 = ZFP SBS#1046 (synthetic)
Outline: as §1

ZFP SBS#1045 = ZFP SBS#1045 (synthetic)
Chain of ZFP SBS#1045 (synthetic) (chain, as listed by the source): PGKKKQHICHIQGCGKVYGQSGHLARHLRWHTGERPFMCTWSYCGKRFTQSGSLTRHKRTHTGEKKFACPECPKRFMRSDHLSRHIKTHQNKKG
Outline: as §1

ZFP SBS#1047 = biological target: T8, ZFP SBS#1047 (synthetic)
T8 chain: T3 chain with R20Q, S21R, D22A, A25E, S52G, D53S, R55T, K81H
Outline: as §1

ZFP SBS#1048 = biological target: T9, ZFP SBS#1048 (synthetic)
T9 chain: T3 chain with R20Q, D22G, H23A, A25T, R55Q, K81N, S83R, R84E
Outline: as §1

ZFP SBS#1050 = ZFP SBS#1050 (synthetic)
Chain of ZFP SBS#1050 (synthetic) (chain, as listed by the source): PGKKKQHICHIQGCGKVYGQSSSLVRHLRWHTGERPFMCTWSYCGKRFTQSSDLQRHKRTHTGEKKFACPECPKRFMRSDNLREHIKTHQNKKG
Outline: as §1

ZFP SBS#1049 = biological target: T10, ZFP SBS#1049 (synthetic)
T10 chain: T3 chain with R20Q, S21R, D22A, H23S, R55Q, K81N, S83R, R84E
Outline: as §1

ZFP SBS#1051 = biological target: T11, ZFP SBS#1051 (synthetic)
T11 chain: T3 chain with H23N, A25T, R55Q, K81N, S83V
Outline: as §1

ZFP SBS#1053 = biological target: T12, ZFP SBS#1053 (synthetic)
T12 chain: T3 chain with Q50D, S51R, D53N, R55T, K81N, S83T, R84T
Outline: as §1

ZFP SBS#1052 = biological target: T13, ZFP SBS#1052 (synthetic)
T13 chain: T3 chain with Q50E, S51K, S52A, D53N, R55T, K81N, S83T, R84T
Outline: as §1

ZFP SBS#1055 = biological target: T14, ZFP SBS#1055 (synthetic)
T14 chain: T3 chain with S52G, D53S, R55T, R78T, D80G, K81D, S83T
Outline: as §1

ZFP SBS#1056 = ZFP SBS#1056 (synthetic)
Chain of ZFP SBS#1056 (synthetic) (chain, as listed by the source): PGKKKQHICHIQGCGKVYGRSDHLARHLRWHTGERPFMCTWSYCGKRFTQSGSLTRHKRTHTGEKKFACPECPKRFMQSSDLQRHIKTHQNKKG
Outline: as §1

ZFP SBS#1057 = ZFP SBS#1057 (synthetic)
Chain of ZFP SBS#1057 (synthetic) (chain, as listed by the source): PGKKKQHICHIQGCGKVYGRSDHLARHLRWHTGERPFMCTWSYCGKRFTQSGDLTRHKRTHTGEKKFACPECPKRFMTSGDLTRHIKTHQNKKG
Outline: as §1

ZFP SBS#1054 = ZFP SBS#1054 (synthetic)
Outline: as §1

ZFP SBS#461 = biological target: T15, ZFP SBS#461 (synthetic)
T15 chain: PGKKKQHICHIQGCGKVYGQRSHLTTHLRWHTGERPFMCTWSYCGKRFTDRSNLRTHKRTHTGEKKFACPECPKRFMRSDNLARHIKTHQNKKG
Outline: as §1

ZFP SBS#1059 = biological target: T16, ZFP SBS#1059 (synthetic)
T16 chain: T3 chain with H23E, A25T, Q50D, S51R, R55T, K81H
Outline: as §1

ZFP SBS#1058 = biological target: T17, ZFP SBS#1058 (synthetic)
T17 chain: T3 chain with H23E, A25T, Q50D, S51R, D53S, R55T, K81H
Outline: as §1

ZFP SBS#1060 = biological target: T18, ZFP SBS#1060 (synthetic)
T18 chain: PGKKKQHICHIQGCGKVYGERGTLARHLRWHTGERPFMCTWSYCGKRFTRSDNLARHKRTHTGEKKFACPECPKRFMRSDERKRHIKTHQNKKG
Outline: as §1

ZFP SBS#1062 = biological target: T19, ZFP SBS#1062 (synthetic)
T19 chain: T3 chain with Q50R, S52D, D53E, R55Q, R78T, D80G, K81S, S83T
Outline: as §1

ZFP SBS#1061 = ZFP SBS#1061 (synthetic)
Chain of ZFP SBS#1061 (synthetic) (chain, as listed by the source): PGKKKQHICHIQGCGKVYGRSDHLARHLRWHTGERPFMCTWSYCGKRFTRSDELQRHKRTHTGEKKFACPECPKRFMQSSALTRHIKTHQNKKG
Outline: as §1

ZFP SBS#1063 = biological target: T20, ZFP SBS#1063 (synthetic, UniProt P08047)
T20 chain: T3 chain with Q50R, S52D, D53E, R55Q, R78M, D80H, K81A
Outline: as §1

ZFP SBS#1064 = biological target: T21, ZFP SBS#1064 (synthetic)
T21 chain: T3 chain with H23A, A25T, S52G, D53S, R55T, K81E, L82R, S83K
Outline: as §1

ZFP SBS#1065 = biological target: T22, ZFP SBS#1065 (synthetic)
T22 chain: T3 chain with Q50D, S51R, D53H, R55A, K81H, S83T, R84T
Outline: as §1

ZFP SBS#1067 = biological target: T23, ZFP SBS#1067 (synthetic)
T23 chain: T15 chain with Q20T, R21S, S22G, T25V, T26R, N53H, R55A, T56R, A83V
Outline: as §1

ZFP SBS#1066 = biological target: T24, ZFP SBS#1066 (synthetic)
T24 chain: T15 chain with R21S, T26R, N53H, R55A, T56R, A83V
Outline: as §1

B1: TCATAGTAG (dsDNA)
DNA 1: TCATAGTAG
DNA 2: CTACTATGA
Q: How did the Kd (ZFP SBS#919) turn out when B1 was run?
A: 250 nM

Q: What about the Kd (ZFP SBS#1041) of the same binder?
A: 2.06 nM

B2: GGGGCTGGG (dsDNA)
DNA 1: GGGGCTGGG
DNA 2: CCCAGCCCC
Q: What does the source list for B2?
A: Kd (ZFP SBS#944): 0.027 nM; Kd (ZFP SBS#941): 0.077 nM; Kd (ZFP SBS#942): 0.13 nM; Kd (ZFP SBS#943): 0.067 nM; Kd (ZFP SBS#1040): 0.05 nM; Kd (ZFP SBS#1039): 1.37 nM; Kd (ZFP SBS#993): 3.1 nM

B3: GGTGGAGTCA (dsDNA)
DNA 1: GGTGGAGTCA
DNA 2: TGACTCCACC
Q: With B3 as the binder, how does the Kd (ZFP SBS#453) read?
A: 150 nM

Q: And the Kd (ZFP SBS#441)?
A: 250 nM

B4: CAGGGAGAG (dsDNA)
DNA 1: CAGGGAGAG
DNA 2: CTCTCCCTG
Q: B4 was tested. Which Kd (ZFP SBS#1044) did it give?
A: 1.07 nM

Q: What about the Kd (ZFP SBS#1043) of the same binder?
A: 0.16 nM

B5: GGGGCAGGA (dsDNA)
DNA 1: GGGGCAGGA
DNA 2: TCCTGCCCC
Q: For B5, which Kd (ZFP SBS#1046) is on record?
A: 0.09 nM

Q: What about the Kd (ZFP SBS#1045) of the same binder?
A: 0.15 nM

Q: And the Kd (ZFP SBS#1047)?
A: 24.7 nM

B6: CAGGCTGTA (dsDNA)
DNA 1: CAGGCTGTA
DNA 2: TACAGCCTG
Q: How did the Kd (ZFP SBS#1048) turn out when B6 was run?
A: 1.39 nM

Q: And the Kd (ZFP SBS#1050)?
A: 0.125 nM

Q: And the Kd (ZFP SBS#1049)?
A: 55.6 nM

B7: GAGGCTGAG (dsDNA)
DNA 1: GAGGCTGAG
DNA 2: CTCAGCCTC
Q: Which Kd (ZFP SBS#1051) does the source give for B7 here?
A: 0.02 nM

B8: TAGGACGGG (dsDNA)
DNA 1: TAGGACGGG
DNA 2: CCCGTCCTA
Q: Which results are given for B8?
A: Kd (ZFP SBS#1053): 0.025 nM; Kd (ZFP SBS#1052): 0.28 nM

B9: GCTGCAGGG (dsDNA)
DNA 1: GCTGCAGGG
DNA 2: CCCTGCAGC
Q: B9 was tested. Which Kd (ZFP SBS#1055) did it give?
A: 18.7 nM

Q: What about the Kd (ZFP SBS#1056) of the same binder?
A: 0.045 nM

Q: And the Kd (ZFP SBS#1057)?
A: 0.483 nM

Q: And the Kd (ZFP SBS#1054)?
A: 0.033 nM

B10: GAGTACTGTA (dsDNA)
DNA 1: GAGTACTGTA
DNA 2: TACAGTACTC
Q: Which Kd (ZFP SBS#461) does the source give for B10 here?
A: 120 nM

B11: GGGGCCGCG (dsDNA)
DNA 1: GGGGCCGCG
DNA 2: CGCGGCCCC
Q: For B11, which Kd (ZFP SBS#1059) is on record?
A: 0.152 nM

Q: What about the Kd (ZFP SBS#1058) of the same binder?
A: 6.28 nM

B12: GCGGAGGCC (dsDNA)
DNA 1: GCGGAGGCC
DNA 2: GGCCTCCGC
Q: Which Kd (ZFP SBS#1060) does the source give for B12 here?
A: 0.69 nM

B13: GTTGCGGGG (dsDNA)
DNA 1: GTTGCGGGG
DNA 2: CCCCGCAAC
Q: Which Kd (ZFP SBS#1062) does the source give for B13 here?
A: 0.068 nM

Q: And the Kd (ZFP SBS#1061)?
A: 0.165 nM

Q: What about the Kd (ZFP SBS#1063) of the same binder?
A: 0.96 nM

B14: GCGGCAGTG (dsDNA)
DNA 1: GCGGCAGTG
DNA 2: CACTGCCGC
Q: Which Kd (ZFP SBS#1064) does the source give for B14 here?
A: 0.453 nM

B15: TGGGGCGGG (dsDNA)
DNA 1: TGGGGCGGG
DNA 2: CCCGCCCCA
Q: B15 was tested. Which Kd (ZFP SBS#1065) did it give?
A: 1.37 nM

B16: GAGGGCGGT (dsDNA)
DNA 1: GAGGGCGGT
DNA 2: ACCGCCCTC
Q: For B16, which Kd (ZFP SBS#1067) is on record?
A: 1.37 nM

Q: What about the Kd (ZFP SBS#1066) of the same binder?
A: 0.15 nM

— US20030068675, “Position dependent recognition of GNN nucleotide triplets by zinc fingers” (published 2003)
